The values that follow come from the DeepSol protein solubility set.

The nature of this series: soluble on expression in E. coli; label from the status in PepcDB or PDB records.
On to “ELTLRIAYNLFTQRPKEEYDDFARWITMTGPGKGSDVYKMNGAGEMLVFSAADFEDFLEPRPDLMPAMEEELKKVVALLVEHRWPFRLHATYDESISRFLAVFEAVDREIPFRGLRWFFDHAETISNRNLERVRRLGGGIAIQDRMAFQGEYFVARYGAEAAKRTPPIARMLAMGIPVGAGTDATRVSSYNPWLSLYWLVSGKTVGGLPLYDDANRLDRTAALRLYTEGSSWFSGDNGSKGALIAGRHADLAVLSADYFAVPEARIKDIESVLTIMGGKIVHASDEFAPLAPPLPPVSPDWSPVASYGGYHGNAAVSTGLRREPCVCHSHSPAWSGPDPRFWGIGCDCFA”, for which the “soluble on expression in E. coli” value was “not soluble”.
Turning to “MSLNADKFRKIDAHSHIQVLGYPFNVSITPEEFLSLMEAYNIEIAIISDVNNDNIAKIVKEYPDKLVGIYWPNPRDEKSINETEKFLEKYEFRGIKLHPLLNMFSPSDPRVEKIMKIAEEFNVHVQIHSGHPPTSLPWQIEELARKFPEVKIVMVHMGHGNAYYIQGAIEIAGRNENIYLETSGMPMPSKIAEAYEVAPRRVVFGIDLPCHHPVVEIAKVLISGLNEKGMKRVFYENAKVLLEGHHHHHH”, the “soluble on expression in E. coli” value was “not soluble”.
Take “MNKSHLGTADNPQEVVTAHDIGRLVDVVNVGKGFLRYVGPIHGKDGMFCGIELLEPNGKHDGTFQGVSYFIATPYHGIFAPIFRVTLDAEELPKPPPPNPSNRLSRSALPALQLRNPLTQERKPEEDVMSTSVYVSSSTKPIAIPTKQCRPPETDPMQMSMFSDMMDGSMFSNGSWSDIADSMITSNCTFTVRKGLPIDDDGDLMSVPMVQSVFNIDREALRREEQLQSSIVLGESRIGVEHLPIIEDENELETPLVETRTMPLPNDLNANFSNKNSTTTFVEPETPKVEIRENGNLDNSIETPPQQSPSGSSMVSHESDSSSKKDDTKSDKSPTKKSQKMEEKPVVKKKEEPAAPPPPPKFPVKQKAPSKHQLMMEQLKASIEAEKTKPKKEIKSRVSLLPPPAPKAPQKENKEGGEMTETPRRTITKTPLKTVNAKAKTSPTPPVERQKKERKPLYVAPPAKERVEKEKKIPSKPVVSPPTTAEKKPVVSSIPSTSSASKGPFPTSSFAGGKLQGPRKTSSSSTTTSAKKQKNPPIDEKEKLSRLQHSTHAFEATLIVMNRINEDNERKLGNISEQYEKKVSELGDLKKMLDEARKKFEEDVEQMKNSNQQVIRNHANAVESLQKTHETQIAEKNKEFERNFEEERARREAEVCAMNNRHQKVVACLDEKISEAEKQCEQLNVDKKVLQAALANDCDHRNQMLTKEISSLQTALEMKSAEMKELRQKNQNLSLQVDEIPLKELEISKWKHKSNEYKQMLDQKINGEKILVQQIEDLRRKQIHDEEEKEAMKRSFDLMQFKYENGDDPNVTSVMSAPMESRFSTPTKVQFRSRSSASGSRPISMATSNGGDQRLSTSSHHDDSMNRSTISMYTSHIRLPENHADDVIYAPDEIISSRSGSISQRLAISIENDGEPTIKSESSRIGNTSDSGIGLVM”: the “soluble on expression in E. coli” value is given as “not soluble”.
As for “MAHHHHHHMFMCRVHARARYLYILQNGSVEEMTALLTKLRAAVPSERLIIEHRPQNIGYAAAVNEGYRVALQKPHAEVPFIGVFNCDVYFERRYFGRYIPVVYKMLAPDAARIRALEEVVEQEERAARAAGRQTLRASVATTPGLSISMLLPDRIRYSSFAEQQDEFKGHVGMFYYETKSMCAFLVSRLALLVGGFLDENFYPAYFEDYDWQFRLANLGFKTFTGSSAQFGGFFHRMGGNIRVINKGPAGKSISYDMAAIRVERMLNAKPGIDYGETKWAWHREALVAMSATPFPQLGFIVPLDVWVLDAARHQLIIDIGTGRRPSVEMSNTYNVSLLSSLRRFALADGKDFWGSGIITTEPDWRK”, the entry is “not soluble”; as for “MEYGAICTPFIFVVYAKSKYLCVLISNEMGKNKLEKFADMASYPHVFEYPYSAVDNVPFDMKGKWHQEFFGNDHPIVLELGCGRGEYTVGLGRMFPDKNFIAVDIKGSRMWTGATESLQAGMKNVAFLRTNIEIIERFFAAGEVSEIWLTFSDPQMKKATKRLTSTYFMERYRKFLKPDGIIHLKTDSNFMFTYTKYMIEANQLPVEFITEDLYHSDLVDDILSIKTYYEQQWLDRGLNIKYIKFRLPQEGVLQEPDVEIELDPYRSYNRSKRSGLQTSK”, “not soluble”; as for “MKRLLLSAAILSSMALFNVNAQELKTSADMKGSFKKNVVLEVFTAEWCGYCPGGKERIAKAIEMLDDEYKERVFQTFVHYNDGISKKWPRVGQLFIALDQTLGIPGFPTFSVCRMEKKGENLSIGAPIAIKNKIMKGFGDGTAPAEVNLKLTKGATPEDVCTATFTGKVDADLIGKPLMLTAYVLKNNMKPINPQNGAGDGYLHQHTVLMILSTDVKGDALNIAADGSFTIKKEFKLDGFEIKDTDVLAFVHHPMSNAENHSIINAGQESLDKAEPTATEQIVATPSVKAYVQNGKIVVEEEYSKMEVFNATGQLVKNESLVPGVYVVRITANGVMYFLKVLVP”, “not soluble”.
With “RIGVIGTGAIGGFYGLMLAHAGHDVHFLLRSEFEAVNRAGLSLNSAVHGFRRLAPVQAYHSAQDMPPCDWLLVGAKTTGNDELAPLIRAAAAPGAKVLLLQNGLGVEERLRPLLPESLHLLGGLCFICVHRGEPGVIEHQAYGGVNLGYHSGPADERRRREIVEEGAALFRESGLESTAMPDLEQARWQKLVWNIPYNGLSVLLKSSTAPLMANADSRSLIEAIMEEVIGAAGACGFILPEGYADQLLAATERMPDYRPSMYHDFAHGRPLELAAIYAAPLARAAA”, the “soluble on expression in E. coli” value was “not soluble”.
The entry for “MAHHHHHHMSSSDGQGMRAVILVGGFGTRLRPLTLTTPKPLVPFCNKPMIIHQIEALKAVGVTEVILAVAYRPEAMKEQMDEWSRKLGVLFVFSVEEEPLGTAGPLALARDILMQDDKPFFVLNSDVTCPFPMQELLDFHKAHGGEGTIMVSQVTQWEKYGVVVYSPQNYQIERFVEKPSSFLGDRINAGIYIFNKSILDRIPPCRTSIEKEIFPSMAAEGQLYAFNLEGFWMDIGQPKDYILGMTKYIPFLVHSNRETEKLHTEATKHQRGGRFTVIGASLIDPSAKIGDGAVIGPYASIGANCVIGESCRIDNAAILENSKVGKGSMVSRSIVGWNNRIGSWCHIKDISVLGDDVEVEDGVVLIGTKVLPNKDVGEHHFEPGIIM” is “soluble”; for “MVSYKARISLSGTEHRVVDRVCNEIKEIASRTGVEIHGPMPLPTKRLVVPVRKSPDGEGTNTWDHWEMRIHKRLIDVDADERTLRQLMRIPIPDGVQIEIQIKS” it is “soluble”; for “MSGKLYICPTPIGNLEDITYRTLRTLKEVDLIAAEDTRHSIKLLNHFEISKPLTSYHEHNKDSKGDYLINKLIDGENIALISDAGMPGISDPGEEIIKQAIQNNIEIEVLPGA” it is “not soluble”.
The entry for “GSHMASREQTMENILKAAKKKFGERGYEGTSIQEIAKEAKVNVAMASYYFNGKENLYYEVFKKYGLANELPNFLEKNQFNPINALREYLTVFTTHIKENPEIGTLAYEEIIKESARLEKIKPYFIGSFEQLKEILQEGEKQGVFHFFSINHTIHWITSIVLFPKFKKFIDGLVPRGSGGLVPRGSGDLVSRIISALTDKPNI” is “soluble”; for “MGSDKIHHHHHHMAWTSAQGATAAMTVVDGVTGLPIAGATVVSAGAERVTANDGTFMMPMDGPDGGIAMTVRAPGYARLETVANGTTPRAIALAPLLAEEAARMGFDEVQFDYLRFPDAPGLRFSETNTSARRVAAITGFLSAARDRLRHYNIYLSADIFGYVCWNLDDTAIGQQLETLVVLSTTFHRCCIRPVSPSGWRRSGATSHPSRRGLP” it is “not soluble”.
The entry for “GPGSMFHRAFVSSSDLTGCTIALSSVCTQKRYWAKPKKRPKVGQGFHEKAQKWREEYLLDRHRALADSLRAYVEFSTSKRVEPWDARFKPFDRIEKDGVYVLMRYMMEEKLQLCNYHHRPVKRLFCNIGLMGPQITTKARWKPYRFATNPAGTSKAERMYQRDKTVYTHGHND” is “not soluble”; for “MANIDYMMDPGWKYLRQAQDEALKEQAARRFDNKTHAWVPDAAEGFVTAAVAVQEGDNLTFTMPDGTPKKLTRAEVQEINPAKFEKTEDMSNLTFLNEASVLHNLRQRYYSMMIYTYSGLFCVFINPYKMLPIYTDSVASMYVNKRRAEMPPHLFAVSDEAFRNMMSDKENQSMLITGESGAGKTENTKKVIAYFAMIGSGNKDQKSESSLENQVVQANPAIEAFGNGATTRNYNSSRYGKFIRIHFDRKGKLVGGDIEHYLLEKSRVIKQAPGERSYHIFYQIMTQKALRERYGLSDNIRDYKFVSQAEITVPGMNDTEEWQITDGAFNVMGFSEREKDDLYKLCSAIMHIGNSTFKQKPRDEQAEVDDMTSPTAACKLFGINTDQFLNALTRPRIKVGMEWVNKGQNVQQVDWAVGALSKAIYARMFNWLIKRVNKTLQANSDEMVYYIGVLDIAGFEIFDRNSFEQLWINFVNEKLQQFFNHHMFVLEQEEYQREGIEWTFIDFGLDLQSCIELIEKPLGIVSMLDEECIVPKASDMTYVDKLLTQHLGKHPNFQKAKPPKGKQAEAHFSIMHYAGTVRYNAEQWLDKNKDPLNDSAVAILKTSDKEGVLYQLWEEYQTDVDREESEKRGKAQAKKKGKSASFLTVSTMYRESLTSLMTMLHTTHPHFIRCIIPNEKKTSGLIDAPLVLNQLTCNGVLEGIRICRKGFPNRMMFADFRFRYAILAADEASDKDAAKASKAMLRKLSKNNQLNVDTFKVGTTKVFFRAGMLARLEELRDEALSAVILKFQCSLRHYLAQLEYKRRLDREDAYPIIQENIRAWIKLRSWPWYRLFSRLKPMLKGMKSNAEIEALEKKCKELEENHKREEEARKKYADELRAKIDQYEETKAAHERDRMLLDKRNKEIEELNRNLKAESESNYENAKKASELERLREKEKKEWDEKERRMQMEAENEANQHKTQTEKLKDQISTLQTDFEKVSAQRKAQEQMNAELVDEVASFKQKAERAEEQKKKLVEDLDSLDDKLAAEKRANNEHVKHNKKLEGQLKATQTQLTLALKEKHEFDVDCKRRESEIGELKLKAQGDANLISKLQAMLRKCISRIEELEEDLLEERKLRMKAERQFNELRSEYEVLQEQMAEASGQLTAEAHINKVRAEEVSNLRRDLQKRNLNHEAYISDLCNMQYATVNNLRNLSQQSATLESEALRILDHRRALSKQPLPRVYVEDPDSDSD” it is “not soluble”; for “MLTTDSLKRLWIFSFDRTLTAAGACYSKARLHRVTRQFLEELAALPGHRVAVLSSRPLDDLVSRVPIEGIYLGGSCGTEWHIPGGESMTLSGKPKDMLMETRDALLPTLREVADLPGVELEDRRWSAALHTQEANTKARQTLFARLAAVLKGWRVALYRNTTMVEIQFLPEITMAFGAQALCRFLGYRGDVVCAGSDENDATALRWALNQGGTALSLGRDPLVPGARPVVDVRSLARHVRDLAGIDEHHRTRMAGRRLCNAALEHHHHHH” it is “not soluble”.
For “GAMADRDRLRPPLDERSLRDQLIGAGSGWRQLDVVAQTGSTNADLLARAASGADIDGVVLIAEHQTAGRGRHGRGWAATARAQIILSVGVRVVDVPVQAWGWLSLAAGLAVLDSVAPLIAVPPAETGLKWPNDVLARGGKLAGILAEVAQPFVVLGVGLNVTQAPEEVDPDATSLLDLGVAAPDRNRIASRLLRELEARIIQWRNANPQLAADYRARSLTIGSRVRVELPGGQDVVGIARDIDDQGRLCLDVGGRTVVVSAGDVVHLR”, the “soluble on expression in E. coli” value is reported as “soluble”.
As for “MVRFRREGVRLDQAVAEALSVSRAKAQAWIQAGRVRVGDRVVLKPAYRLKGEEVAVEPVEEAPMVLPEDLPIPILYEDEDVLALNKPPGLLTHPAPGVYSGTVVNLLLARYYGPVEKGPPELVRPGIVHRLDKDTSGVLVVAKHGGDLEGLARAFRDRLVMKRYLAITEGHPREGVLIAPIGRHPRERHKMHVGGLAARYAETEFQVLATAGPYALVEARPHTGRTHQIRVHLKYLGAPILGDELYGRKSPHIGRQALHAYELRIPHPRTGRILELLAPVPQDMAAAWEALGGRWPEEVVREGYAGAQ”, the “soluble on expression in E. coli” value is listed as “soluble”.
